Results published in US20240245805A1 (Orna Therapeutics, Inc., priority 2020, published 2024).

B1: Human pegivirus isolate JD2B1I (nucleic acid, listed as Pegivirus sp.)
DNA: TCAGGGTTGGTAGGTCGTAAATCCCGGTCACCTTGGTAGCCACTATAGGTGGGTCTTAAGAGAAGGTTAAGATTCCTCTTGTGCCTGCGGCGAGACCGCGCACGGTCCACAGGTGTTGGCCCTACCGGTGGGAATAAGGGCCCGACGTCAGGCTCGTCGTTAAACCGAGCCCGTCACCCACCTGGGCAAACGACGCCCACGTACGGTCCACGTCGCCCTTCA
B2: Symapivirus A (nucleic acid)
DNA: TTGGGAAATCCCCAATGCTTCTTTCAACACCGCCTGACTATGCGGTGGCGCTTCGGCTCAAACAACTAGTCACTTCCCCCTCTTAACTACTACCCAAGACTTCTAACTACCCTTACCTACTTATTTGTCTAAATTTCAAACTTTTATTCTCACGCGTCTTATAAACATCTTTTCTATTTGTTATGGTATGTTTTGTGATTTGTGTGGTGTATTTCATTTAATGGGATCTAGTGGACCGTGCCCCGGTTGGGTATCCGCTCCCTTTAAATGTTTGCAAGCACTCTTGACATTATAACCTATCATTTAGTTTACTTGTTTGTATGATCGTATTTCTGAATCGTAACATTTATGCAATTCTTTCTCGCCGAGACTTGTCTAGGAGATAAAGTTCCTGCATATTTAGTGTTACGGTTGTATAATGGAGACTTAGATAGCTTCACACTGAGGACGCTTTTTCGCTATCCTTTTGACCTGATTCAGGCCAGTGTGGAGTTAATGATTGTATGGATGGGCCCTACAATTTGTCTAAGACTTGGTGATAGCCTCGCGGCCGCTCGCCATTTATACAACTGAATAGCGGTTGAAACTCTCT
modifications: Symapivirus A
B3: Tropivirus A (nucleic acid)
DNA: TGTCGCATGTTGCCAACATCAAAATTCTGGGAGAGTCGCGAACTCCTTAACACTGCCTTGCCTCGACGGAGCCGTTGTTATAGTGTCGACGGGATACAAACATTAAACTAAACCCACTTGCCTCGACGGAACCCCTTACCTTTTATTTTATTTTATAGTATGAAAGTGAATCTTGTATGAATGTTCATAGAAAACTGCAAATGAGTACCACGTCTAACATGAGAGAATGATACTGGAGAAATCCAAGTTTAGAAGTCACTACGAATCCCAGCGGAAACAAGGGAATTCTGAGCTTCTAATAGGCGTTTAAGACTATTTGCAAAATTCTGGTGCGTAAGTGATATTTTCATTGCGTAGAACGCTGGTAACCACTCCGGCTAGTATAAGCATTGTTAGTCACTTATTATGAAACTCCACACTATCCTTTCTGGAGAAGCACACAAACTTACATGGTAAAGCTAGACCATTATCTTAAGCGGTGAGTACACTGCAACCTTGTAACAATGCTTGTATGACTACTTTTTGTATATCTTGAGCAATATTGTTGAGGTGGACATGTCCAAAGGTAATGTTGTTGGGAATGGAGGGGTCCATTTTCCCGTGCACGTAGTGTACTAGTATTGGGTGATAGCCTTGCGGCGGATCAACCATGTATTTTAATCCGTTGACTTTCAC
modifications: Tropivirus A
B4: Simian pegivirus (nucleic acid, listed as Pegivirus sp.)
DNA: GGGGAATCTCACCCCCCGTCCGGTTCCGGAAGAATCGGAAACCGACACCCTGACCAATCATTCTTGATCATAGAGTGGATGTTAGTGAAAGCCAGACGAAAGCCGGCGGATGGGTGGTGACAGGGTTGGTAGGTCGTAAATCCCGGCCACCCTGGTACCCGGTATAAGTTGGGCGGAAGCTGACTGAAGCTCCGTGCTCTTTTCTGTGCGTTCTTGGTGCACGGTCCACAGGTGACGCCTATACCGGTGTGAATAATAGGCCGACTCGAGCGGAGTCGTTAAACTGAGAACCTCCATACGGATGGCAACTTGGCTTGCGTACGGGGACGCCGCTAAAGTCACAGTGGGTTAAGTCCGGCGGGTTGACAACCCCAGCAAGGCGAGGGGGTCCTATTGTTGGACTCTGCCAGTTCCCGGTGGAGGTAGGCATGGGGTGGCCCAGCTCCGCGGCGCGCTACAGCCGGGGTAGCCCAAAATCCGAAAGGTGAGGGCGGGCCACATGTCCGAAATTTAGTCAAGC
modifications: lipid formulation
B5: 18-675 (nucleic acid)
DNA: CCCACAGCAAGAATGCCATCATCTGTCCTCACCCCCAATTTTCCCTTTTCTTCCCCTGCAACCATTACGCTTACTCGCATGTGCATTGAGTGGTGCATGTGTTGAACAAACAGCTACACTCACATGGGGGCGGGTTTTCCCGCCCTACGGCCTCTCGCGAGGCCCACCCCTTCCCTCCCCTTATAACTACAGTGCTTTGGTAGGTAAGCATCCTGATCCCCCGCGGAAGCTGCTCACGTGGCAACTGTGGGGACCCAGACAGGTTATCAAAGGCACCCGGTCTTTCCGCCTTCAGGAGTATCCCTACTAGTGAATTCTAGCGGGGCTCTGCTTGGTGCCAACCTCCCCCAAATGCGCGCTGCGGGAGTGCTCTTCCCCAACTCACCCTAGTATCCTCTCATGTGTGTGCTTGGTCAGCATATCTGAGACGATGTTCCGCTGTCCCAGACCAGTCCAGTAATGGACGGGCCAGTGCGTGTAGTCGTCTTCCGGCTTGTCCGGGGCATGTTTGGTGAACCGGTGGGGTAAGGTTGGTGTGCCCAACGCCCGTACTTTGGTGACACCTCAAGACCACCCAGGAATGCCAGGGAGGTACCCCACCTCACGGTGGGATCTGACCCTGGGCTAATTGTCTACGGTGGTTCTTCTTGCTTCCACTTCTTTCTTCTGTTCACG
modifications: source: /note="Description of Unknown: 18-675 sequence"
B6: Aichivirus Rt386 (nucleic acid, listed as Aichivirus sp.)
DNA: ACTCCATTCAGCTTCTTCGGAACCTGTTCGGAGGAATTAAACGGGCACCCACTTTCCTGTCCTCTCCCCCTTTCTGCAACTCAAGTGTGTGCTCGTAATCCTGACTCCCACGGGTTGACCGCCCCGTTGGTGAACAAACAGCTAGGTCATTCCCTCCCTACCCCTGGGCGCCATTTCAGTGGCGTTCATATCCTCCCCCCAGCCTGACGTGTCACAGGCTGTGCAAAGTCCCCGCGAAAGCTGCTCACGTGGCAATTGTGGGTCCCCCCTTTGTGAAGGAACCGAGTCTTTCTCCCTTAAGGCTAGACCCCTGTGTGAACTCACAGGTGGCAACTAGTGGTTCCACTGCATGCTCCCGACCTCGGCCGCGGAGTGCTGTTCCCCAAGTCGTGACACTGACCTCCACTTATGTGCCTGGCAAGCATATCTGAGAAGATGTTCCGCTGTGGCTGCCAAACCTGGTAACAGGTGCCCCAGTGCGTGTAGTCTTCTTCCGTCTCCGGACGGTAAGTGTGTGGTAAAGATGCGGCGTAAGGTTCAAGTGCCAACGCCCTGGAAGGGATGACCCTTCTACTGCCCTAGGAATGCCGCGCAGGTACCCCAGGTTCGCCTGGGATCTGAGCGCGGGCTAATTGTCTACGGGTAGTTTCATTTCCCTCTCTTTTCACTGGCATC
B7: A73-675 (nucleic acid)
DNA: TTACTCCATTCAGCTTCTTCGGAACCTGTTCGGAGGAATTAAACGGGCACCCATACTCCCCCCACCCCCCTTTTGTAACTAAGTATGTGTGCTCGTGATCTTGACTCCCACGGAACGGACCGATCCGTTGGTGAACAAACAGCTAGGTCCACATCCTCCCTTCCCCTGGGAGGGCCCCCGCCCTCCCACATCCTCCCCCCAGCCTGACGTATCACAGGCTGTGTGAAGCCCCCGCGAAAGCTGCTCACGTGGCAATTGTGGGTCCCCCCTTCATCAAGACACCAGGTCTTTCCTCCTTAAGGCTAGCCCCGGCGTGTGAATTCACGTTGGGCAACTAGTGGTGTCACTGTGCGCTCCCAATCTCGGCCGCGGAGTGCTGTTCCCCAAGCCAAACCCCTGGCCCTTCACTATGTGCCTGGCAAGCATATCTGAGAAGGTGTTCCGCTGTGGCTGCCAACCTGGTGACAGGTGCCCCAGTGTGCGTAACCTTCTTCCGTCTCCGGACGGTAGTGATTGGTTAAGATTTGGTGTAAGGTTCATGTGCCAACGCCCTGTGCGGGATGAAACCTCTACTGCCCTAGGAATGCCAGGCAGGTACCCCACCTCCGGGTGGGATCTGAGCCTGGGCTAATTGTCTACGGGTAGTTTCATTTCCAATCCTTTTATGTCGGAGTC
modifications: source: /note="Description of Unknown: A73-675 sequence"
B8: Porcine Kobuvirus GS2 (nucleic acid, listed as Kobuvirus sp.)
DNA: TTTGAAAAGGGGGTGGGGGGGCCTCGGCCCCCTCACCCTCTTTTCCGGTGGCCATTCGCCCGGGCCACCGTTACTCCACTCCACTCCTTCGGGACTGGTTTGGAGGAACACAACAGGGCTTCCCATCCCTGTTTACCCTTTATTCCATCATCCTTTCCCCAAGTTTACCCTATCCACACCCCACTGACTGACTCCTTTGGATTTTGACCTCAGAATGCCTATTTGACCTCCCACTCGCCTCTCCCTTTTCGGATTGCCGGTGGTGCCTGGCGGAAAAAGCACAAGTGTGTTGCAGGCTACCAAACTCCTACCCGACAAAGGTGCGTGTCCGCGTGCTGAGTAATGGGATAGGAGATGCCTACAACAGGCTCGCCCATGAGTAGAGCATGGACTGCGGTGCATGTGACTTCGGTCACCACGGGCATAGCATTGCTCACCCGTGAATCAAGTCATCGAGATTTCTCTGACCTCTGAAGTGCACTGTGGTTGCGTGGCTGGGAATCCACGCTTGACCATGTACTGCTTGATAGAGTCGCGGCTGGCCGACTCATGGGTTAAAGTCAGTTGACAAGACAC
modifications: lipid formulation
B9: Pegivirus I (nucleic acid)
DNA: AGAATGGTCTAAGTGGTTGCCACCGTGGTCCGAAGGGGAGGAGGACCTACGCTGCCAGGGTTGGCAGGTCGTAAATCCCGGGTGTAGGAGATCCCTCCTTGTTAGGACTGCTGGTAGCTGGGGGGTCGGTGACCCCCTGGGCAACCGCCAAACCCGGACGACCGGGTGGCGGCTCCATGTTGGCACGGTCCACAGGTGTGAACCCTACCGGTGTGAATAAGGGTTGGTGGTTGCGGTCCACCTTAAACGTAGTATGCATTGGGCTTGGTAAAACACCGCTCGTAGTACGGAACGCCGCCTTTAAAGACACAGTAGGCGTAGCCGGCGGGTTGACAATCCATACGGGGGGTGGGGTGTGGTCATGGATCTGTCCACACCACCTTCATGCGGCCCTCTAAGCAAGCCATACCGGGGGGAGGCGCGCGGCACCGCACTGCCGGGCAAGGGGAAGAACCTTCGGGTGACCCCCCCCCAACCACCGTCCGATCAATGCTAATGTTGCGTTTAGGCGTGACACCGGCACA
modifications: lipid formulation; Pegivirus I

The molecules below were run on HEK293 cells. Conditions: circular RNA encoding Gluc with the listed IRES (UTR truncated to 675 nt) transfected into HEK293 cells; supernatant after 24 hours.
Format: cell-based, human

Molecule	Expression (luminescence from secreted Gluc protein)
B1	6.85E+05
B2	1.27E+05
B3	9.52E+04
B4	8.56E+04
B5	6.04E+07
B6	5.71E+07
B7	1.30E+08
B8	44200000
B9	8.02E+04
